The results in this text go back to patent publication US6713443B1, “Compounds which modify serotoninergic transmission, diagnostic and therapeutic applications” (Institut Pasteur, priority 1993, dated 2004).

No end group written: not given here.

The test system of assay [1] is 5-HT1B/D receptors. The assay is described as follows: Relative activity at 1 nM, [125I]cyanopindolol binding. To be noted: 1 nM peptide or amino acid, 0.3 nM [125I]cyanopindolol. The protocol:
(§1) The binding experiments were performed as described above. […] Each value corresponds to the mean ± the standard deviation of three independent tests performed in quintuplicate.

Assay [2] deals with 5-HT1B/D receptors. Nature of the assay: Relative activity at 1 nM, [3H]5-HT binding. Particulars: 1 nM peptide or amino acid, 30 nM [3H]5-HT. The protocol: as §1
A further assay concerns mouse. Nature of the assay: Forced swimming test (Porsolt). To be noted: reference antidepressants. The assay is classed as in vivo. From the text:
The forced swimming test (Porsolt) is a simple test which cannot, under any circumstances, be assimilated with a model of “depression”.

The target of assay [3] is 5-HT1B/1D receptors. The assay is described as follows: inhibition of 30 nM [3H]5-HT binding, 1 nM peptide.
The target of assay [4] is T1, 5-HT1B receptor of rat brain (rat, UniProt P28564 1-386).
T1 construct: whole, on cells
T1 sequence (P28564 whole entry): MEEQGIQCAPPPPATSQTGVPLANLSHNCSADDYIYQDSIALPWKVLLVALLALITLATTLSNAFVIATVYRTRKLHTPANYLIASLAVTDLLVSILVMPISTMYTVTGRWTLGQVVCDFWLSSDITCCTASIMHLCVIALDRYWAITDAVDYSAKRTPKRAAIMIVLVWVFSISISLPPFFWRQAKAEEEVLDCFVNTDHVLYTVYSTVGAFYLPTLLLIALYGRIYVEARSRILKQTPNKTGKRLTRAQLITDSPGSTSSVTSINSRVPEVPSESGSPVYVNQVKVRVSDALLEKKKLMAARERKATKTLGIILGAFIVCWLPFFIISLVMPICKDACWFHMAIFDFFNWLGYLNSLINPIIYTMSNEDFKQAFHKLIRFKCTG
The assay is described as follows: inhibition of 0.3 nM [125I]cyanopindolol binding, 1 nM peptide.

The target in assay [5] is 5-HT1B/1D receptors. Nature of the assay: inhibition of [3H]5-HT or [125I]cyanopindolol binding to 5-HT1B/1D type receptors.
The test system of a further assay is 5-HT1B/1D type receptors. Nature of the assay: Binding of [3H]5-HT or [125I]cyanopindolol to 5-HT1B/1D type receptors (short peptides).
The test system of another assay is 5-HT receptor. Nature of the assay: Ligand activity of modified LSAL peptides on the 5-HT receptor. The assay is classed as binding.
Assay [6] addresses T2, 5-HT1D receptors in guinea pigs (guinea pig, UniProt Q60484 1-376).
T2 construct: Native tissue; preparation not described
The assay is described as follows: inhibition of [3H]5-HT binding to 5-HT1D receptors, guinea pig.

Assay [7] concerns the target 5-HT1 receptors. The assay is described as follows: inhibition of [3H]5-HT binding to 5-HT1 receptors, 10^-9 M peptide.
In assay [8] the target is 5-HT1 receptors. The assay is described as follows: inhibition of [3H]5-HT binding to 5-HT1 receptors.
The target in assay [9] is 5-HT1A receptors of rat brain (rat) (UniProt P19327). Nature of the assay: radioligand binding, rat brain membranes, [3H]8-OH-DPAT (3 nM), 1 nM peptide.
Chain of 5-HT1A receptors of rat brain (rat) (P19327 whole entry): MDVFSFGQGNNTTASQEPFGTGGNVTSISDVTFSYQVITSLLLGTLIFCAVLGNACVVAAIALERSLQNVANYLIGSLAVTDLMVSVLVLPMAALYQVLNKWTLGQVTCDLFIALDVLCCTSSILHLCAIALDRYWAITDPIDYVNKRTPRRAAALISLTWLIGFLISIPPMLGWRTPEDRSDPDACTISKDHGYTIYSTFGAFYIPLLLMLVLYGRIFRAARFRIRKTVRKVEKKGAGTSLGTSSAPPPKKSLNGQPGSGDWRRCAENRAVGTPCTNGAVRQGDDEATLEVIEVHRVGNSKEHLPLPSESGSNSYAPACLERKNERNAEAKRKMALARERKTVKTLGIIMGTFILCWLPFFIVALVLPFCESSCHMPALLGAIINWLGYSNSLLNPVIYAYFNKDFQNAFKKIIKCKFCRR
Assay [10] deals with 5-HT2A receptor of rat brain (rat) (UniProt P14842). Nature of the assay: radioligand binding, rat brain membranes, [3H]ketanserin (5 nM), 1 nM peptide.
Chain of 5-HT2A receptor of rat brain (rat) (P14842 whole entry): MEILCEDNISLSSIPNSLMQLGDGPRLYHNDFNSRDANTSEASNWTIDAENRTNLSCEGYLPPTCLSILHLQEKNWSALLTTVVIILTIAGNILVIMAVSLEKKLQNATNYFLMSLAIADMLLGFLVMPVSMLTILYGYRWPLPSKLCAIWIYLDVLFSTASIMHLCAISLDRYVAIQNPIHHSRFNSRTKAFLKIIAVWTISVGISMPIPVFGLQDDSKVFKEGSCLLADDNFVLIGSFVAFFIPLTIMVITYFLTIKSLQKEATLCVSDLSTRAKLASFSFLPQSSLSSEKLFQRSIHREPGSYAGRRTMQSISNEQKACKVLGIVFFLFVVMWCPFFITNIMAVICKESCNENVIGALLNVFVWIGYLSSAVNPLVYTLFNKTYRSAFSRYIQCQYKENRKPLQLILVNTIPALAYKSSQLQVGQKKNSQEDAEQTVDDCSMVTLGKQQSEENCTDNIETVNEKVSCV
The target of assay [11] is T3, 5-HT1D receptors of human brain (human, UniProt P28221 1-377).
T3 construct: whole, on cells; Native tissue; preparation not described
T3 sequence (P28221 whole entry): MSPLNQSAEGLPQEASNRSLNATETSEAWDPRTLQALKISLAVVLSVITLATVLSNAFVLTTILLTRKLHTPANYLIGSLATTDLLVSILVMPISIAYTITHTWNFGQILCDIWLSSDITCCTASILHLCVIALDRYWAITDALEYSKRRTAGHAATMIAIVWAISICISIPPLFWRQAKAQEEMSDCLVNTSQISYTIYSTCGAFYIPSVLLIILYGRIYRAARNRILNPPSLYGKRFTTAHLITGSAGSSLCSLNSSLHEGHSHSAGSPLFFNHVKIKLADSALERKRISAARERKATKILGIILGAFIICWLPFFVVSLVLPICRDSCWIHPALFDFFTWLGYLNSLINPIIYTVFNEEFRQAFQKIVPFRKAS
Nature of the assay: inhibition of [3H]5-HT binding to 5-HT1D receptors, human brain.

Another assay concerns the target 5-HT1EFC. The assay is described as follows: radioligand binding, rat brain membranes, [3H]5-HT (30 nM) + 20 nM 5-CT, 1 nM peptide.
Assay [12] has as its target β adrenergic receptors of rat brain. Nature of the assay: radioligand binding, rat brain membranes, [3H]dihydroalprenolol (3 nM) + 5-HT, 1 nM peptide.
Assay [13] deals with 5-HT3 receptor of rat brain (rat) (UniProt P35563). Nature of the assay: radioligand binding, rat brain membranes, [3H]BRL 43694 (3 nM), 1 nM peptide.
Chain of 5-HT3 receptor of rat brain (rat) (P35563 24-483): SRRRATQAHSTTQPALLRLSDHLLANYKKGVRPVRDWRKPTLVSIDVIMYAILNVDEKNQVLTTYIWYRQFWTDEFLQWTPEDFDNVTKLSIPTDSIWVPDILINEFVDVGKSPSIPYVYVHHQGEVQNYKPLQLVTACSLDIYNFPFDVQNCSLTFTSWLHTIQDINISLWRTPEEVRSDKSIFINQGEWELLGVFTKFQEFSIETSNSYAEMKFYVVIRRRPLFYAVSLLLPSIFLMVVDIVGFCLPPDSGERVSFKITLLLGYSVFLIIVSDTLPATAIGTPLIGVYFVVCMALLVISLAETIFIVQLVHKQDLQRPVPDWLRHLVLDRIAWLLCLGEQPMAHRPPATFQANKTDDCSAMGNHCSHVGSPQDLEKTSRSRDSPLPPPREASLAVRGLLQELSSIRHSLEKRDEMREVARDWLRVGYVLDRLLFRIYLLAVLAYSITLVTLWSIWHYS
The target of assay [14] is benzodiazepine receptors of rat brain. The assay is described as follows: radioligand binding, rat brain membranes, [3H]flunitrazepam (3 nM), 1 nM peptide.
Assay [15] deals with T1, 5-HT1B receptor of rat brain. Nature of the assay: inhibition of [125I]cyanopindolol binding, rat cerebral tissue homogenates.
The target in assay [16] is D2 dopaminergic receptor of rat brain (rat) (UniProt P61169). The assay is described as follows: radioligand binding, rat brain membranes, [3H]epiperone (2 nM) + 10 µM 5-HT, 1 nM peptide.
Chain of D2 dopaminergic receptor of rat brain (rat) (P61169 whole entry): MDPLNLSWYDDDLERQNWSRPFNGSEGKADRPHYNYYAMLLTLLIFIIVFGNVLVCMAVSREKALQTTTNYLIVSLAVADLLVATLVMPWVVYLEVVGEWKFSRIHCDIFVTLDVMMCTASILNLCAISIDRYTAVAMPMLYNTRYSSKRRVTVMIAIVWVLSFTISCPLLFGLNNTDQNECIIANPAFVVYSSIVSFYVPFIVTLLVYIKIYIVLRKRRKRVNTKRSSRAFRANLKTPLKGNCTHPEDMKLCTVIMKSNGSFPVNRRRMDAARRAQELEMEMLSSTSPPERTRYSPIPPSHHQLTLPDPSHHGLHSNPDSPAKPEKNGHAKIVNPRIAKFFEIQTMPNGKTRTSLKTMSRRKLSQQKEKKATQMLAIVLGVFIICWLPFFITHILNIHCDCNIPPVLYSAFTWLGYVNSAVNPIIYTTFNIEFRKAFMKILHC
The target in assay [17] is 5-HT1B/1D receptors. The assay is described as follows: inhibition of [3H]5-HT binding to 5-HT1nonA sites.
The target of assay [18] is α1 adrenergic receptors of rat brain. The assay is described as follows: radioligand binding, rat brain membranes, [3H]prazosin (2 nM), 1 nM peptide.
Assay [19] addresses muscarinic receptors of rat brain. The assay is described as follows: radioligand binding, rat brain membranes, [3H]quinuclidinyl benzilate (3 nM), 1 nM peptide.
Assay [20] concerns the target 5-HT1B/1D receptors. The assay is described as follows: radioligand binding, rat brain membranes, [3H]5-HT (30 nM) + 0.1 µM 8-OH-DPAT, 1 nM peptide.
Assay [21] concerns the target opiate receptors of rat brain. The assay is described as follows: radioligand binding, rat brain membranes, [3H]naloxone (2 nM), 1 nM peptide.
For assay [22], the target named is 5-HT1B/1D receptors. Nature of the assay: cell-based or functional assay.
For assay [23], the target named is 5-HT2A receptor of rat brain (rat) (UniProt P14842). Nature of the assay: radioligand binding, rat brain membranes, [3H]DOB (5 nM), 1 nM peptide.
In assay [24] the target is H1 histaminergic receptor of rat brain (rat) (UniProt P31390). The assay is described as follows: radioligand binding, rat brain membranes, [3H]mepyramine (5 nM), 1 nM peptide.
Chain of H1 histaminergic receptor of rat brain (rat) (P31390 whole entry): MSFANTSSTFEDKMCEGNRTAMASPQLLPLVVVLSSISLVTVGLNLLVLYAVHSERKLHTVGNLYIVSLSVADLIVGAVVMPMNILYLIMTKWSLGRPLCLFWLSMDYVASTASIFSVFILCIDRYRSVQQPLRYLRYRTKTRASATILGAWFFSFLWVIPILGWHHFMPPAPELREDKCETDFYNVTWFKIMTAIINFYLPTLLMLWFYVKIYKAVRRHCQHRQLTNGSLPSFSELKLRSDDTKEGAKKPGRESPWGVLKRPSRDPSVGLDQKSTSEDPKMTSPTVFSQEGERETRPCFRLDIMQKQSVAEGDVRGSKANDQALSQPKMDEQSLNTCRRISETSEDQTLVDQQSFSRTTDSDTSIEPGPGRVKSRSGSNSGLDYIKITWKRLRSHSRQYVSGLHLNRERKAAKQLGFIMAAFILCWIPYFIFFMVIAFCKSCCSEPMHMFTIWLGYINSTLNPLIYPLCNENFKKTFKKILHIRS

T2 sequence (Q60484 whole entry): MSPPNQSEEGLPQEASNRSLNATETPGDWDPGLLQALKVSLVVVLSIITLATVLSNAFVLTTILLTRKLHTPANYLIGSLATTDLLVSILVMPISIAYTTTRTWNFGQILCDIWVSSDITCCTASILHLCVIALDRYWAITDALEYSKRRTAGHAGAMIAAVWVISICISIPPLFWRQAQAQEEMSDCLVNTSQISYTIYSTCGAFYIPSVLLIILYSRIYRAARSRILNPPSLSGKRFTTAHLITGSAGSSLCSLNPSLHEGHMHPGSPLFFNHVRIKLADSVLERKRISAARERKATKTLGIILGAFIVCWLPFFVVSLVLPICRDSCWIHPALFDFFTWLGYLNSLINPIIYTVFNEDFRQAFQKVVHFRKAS

For `C[C@H](N)C(=O)O` [ALA], in the assay with 5-HT1B/D receptors [1], the “RELATIVE POTENCY, Receptors 5-HT1B/D ([125I]-cyanopindolol)” value (“RELATIVE POTENCY … ([125I]-cyanopindolol)” below) was 1.7 ± 1.68 percentage of the LSAL effect. For the same molecule, the “RELATIVE POTENCY, Receptors 5-HT1B/D ([3H]5-HT)” value (shortened to “RELATIVE POTENCY … ([3H]5-HT)”) in the assay with 5-HT1B/D receptors [2] was 0 ± 4 percentage of the LSAL effect.

`CC(C)C[C@H](N)C(=O)O` [LEU]: the “RELATIVE POTENCY … ([125I]-cyanopindolol)” value in the assay on 5-HT1B/D receptors [1] is recorded as 0 ± 2 percentage of the LSAL effect. Further, the “RELATIVE POTENCY … ([3H]5-HT)” value in the assay with 5-HT1B/D receptors [2] was 2 ± 9 percentage of the LSAL effect.

On to `N[C@@H](CO)C(=O)O` [SER], for which the “RELATIVE POTENCY … ([125I]-cyanopindolol)” value in the assay with 5-HT1B/D receptors [1] is recorded as 0 ± 1.7 percentage of the LSAL effect. For the same molecule, the “RELATIVE POTENCY … ([3H]5-HT)” value in the assay on 5-HT1B/D receptors [2] is reported as 0 ± 5 percentage of the LSAL effect.

For `CN1Cc2c(N)cccc2C(c2ccccc2)C1` (stereo not shown) [nomifensine], in the assay on mouse, the “activity in the forced swimming test compared with the peptide” value is “much more effective than the peptide”.

As to AC-LEU-SER-ALA-LEU, the “RELATIVE POTENCY … ([3H]5-HT)” value in the assay on 5-HT1B/D receptors [2] is reported as 26.7 ± 10 percentage of the LSAL effect.

Molecule AC-LEU-SER-ALA-LEU (peptide) displayed a relative potency (% of the LSAL effect) (% of the LSAL effect) with 5-HT1B/1D receptors [3] of 26.7.

Turning to Ala-Leu (peptide), the relative potency (% of the LSAL effect) (% of the LSAL effect) in the assay with 5-HT1B/1D receptors [3] worked out at 50; in [4], 61.5. This molecule returned an IC50 with 5-HT1B/1D receptors [5] of 1000 nM.

For “Ala-Leu-Leu-Ser (ALLS; printed: ALA-LEU-LEU-SER) [comparison peptide]”, the “RELATIVE POTENCY … ([125I]-cyanopindolol)” value with 5-HT1B/D receptors [1] is on record as 23.6 ± 10.6 percentage of the LSAL effect. Moreover, in the assay with 5-HT1B/D receptors [2], the “RELATIVE POTENCY … ([3H]5-HT)” value is reported as 10 ± 15 percentage of the LSAL effect. In addition, in the assay on 5-HT1B/1D type receptors, the “activity on binding to the 5-HT1B/1D type receptors” value is “inactive”.

With Ala-Leu-Leu-Ser (peptide), the relative potency (% of the LSAL effect) (% of the LSAL effect) with 5-HT1B/1D receptors [3] was 10; in assay [4], 23.6.

On to Ala-Leu-Ser (ALS), for which, in the assay on 5-HT1B/D receptors [1], the “RELATIVE POTENCY … ([125I]-cyanopindolol)” value was 33.8 ± 10 percentage of the LSAL effect. Moreover, the “RELATIVE POTENCY … ([3H]5-HT)” value in the assay with 5-HT1B/D receptors [2] is 28 ± 10 percentage of the LSAL effect. The molecule also showed an IC50 on 5-HT1B/1D type receptors of 1000 nM.

Consider Ala-Leu-Ser (peptide), for which the relative potency (% of the LSAL effect) (% of the LSAL effect) was found to be 28 with 5-HT1B/1D receptors [3] and 33.8 in assay [4]. This molecule also registered an IC50 in the assay with 5-HT1B/1D receptors [5] of 1000 nM.

As to D-ALA-LEU (peptide), the relative potency (% of the LSAL effect) (% of the LSAL effect) with 5-HT1B/1D receptors [3] was 0.

With LEU-ALA (peptide), the figures for the relative potency (% of the LSAL effect) (% of the LSAL effect) (with 5-HT1B/1D receptors [3]; in [4]) were 1 and 1.7, respectively.

The molecule LEU-SER-ALA-LEU-NH2 (peptide) showed a relative potency (% of the LSAL effect) (% of the LSAL effect) with 5-HT1B/1D receptors [3] of 83.3.

In the case of LSALGGGY, the “ligand activity on the 5-HT receptor” value in the assay on 5-HT receptor is “still having a substantial activity”. Also, in the assay with 5-HT1B/D receptors [2], the “RELATIVE POTENCY … ([3H]5-HT)” value is on record as 80.9 ± 9.5 percentage of the LSAL effect.

Consider Leu-Ser (peptide), for which the relative potency (% of the LSAL effect) (% of the LSAL effect) was found to be 45.7 in the assay with 5-HT1B/1D receptors [3] and 53.8 in [4]. Besides, the IC50 in the assay with 5-HT1B/1D receptors [5] came out at 10000 nM.

Leu-Ser-Ala-Leu-NH2: the “RELATIVE POTENCY … ([3H]5-HT)” value in the assay with 5-HT1B/D receptors [2] is reported as 83.3 ± 16 percentage of the LSAL effect.

Consider SER-LEU (peptide), for which the relative potency (% of the LSAL effect) (% of the LSAL effect) with 5-HT1B/1D receptors [3] amounted to 4.

In turn, β-ALA-DL-LEU (peptide) showed a relative potency (% of the LSAL effect) (% of the LSAL effect) with 5-HT1B/1D receptors [3] of 2.

As to β-ALA-LEU (peptide), in the assay with 5-HT1B/1D receptors [3], the relative potency (% of the LSAL effect) (% of the LSAL effect) came out at 0.

On to LSAL (also called LSAL; the peptide) [Leu-Ser-Ala-Leu], for which the IC50 (in assay [6]; with 5-HT1 receptors [8]; in assay [11]; in assay [15]; with 5-HT1B/1D receptors [17]) was 0.01 nM each time. The molecule further had a maximum inhibitory effect with 5-HT1 receptors [7] of 30 to 50%. In the assay with 5-HT1B/1D receptors [3], this molecule yielded a relative potency (% of the LSAL effect) (% of the LSAL effect) of 100. The inhibitory effect as % of the control (% of the control) is 0 in assay [9]; 10 in [10]; 0 with 5-HT1EFC; 10 in assay [12]; 0 in [13]; 2 in assay [14]. Besides, the inhibitory effect as % of the control (% of the control) in [16] stood at 2; in assay [18] it was 5; in assay [19], 0; with 5-HT1B/1D receptors [20] it was 75; in assay [21], 10; in [23] it was 2. The molecule also registered an inhibitory effect as % of the control (% of the control) in assay [24] of 10. Also, the K+-induced liberation of [3H]5-HT from rat brain hippocampus synaptosomes, apparent IC50 with 5-HT1B/1D receptors [22] was 0.01 nM.

In turn, LSALGGGY [Leu-Ser-Ala-Leu-Gly-Gly-Gly-Tyr] had a relative potency (% of the LSAL effect) (% of the LSAL effect) in the assay with 5-HT1B/1D receptors [3] of 80.9.

The IC50 is the point on the concentration scale where inhibition reaches its midpoint.
